Test system: mussel adhesive protein fp-151
Sequence (chain, as listed by the source): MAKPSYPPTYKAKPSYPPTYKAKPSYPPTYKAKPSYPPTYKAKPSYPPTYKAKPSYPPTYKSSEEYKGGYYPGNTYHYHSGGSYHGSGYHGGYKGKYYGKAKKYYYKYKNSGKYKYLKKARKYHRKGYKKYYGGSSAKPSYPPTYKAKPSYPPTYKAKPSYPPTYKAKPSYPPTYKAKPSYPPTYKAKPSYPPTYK

alkaline phosphatase
activity of alkaline phosphatase remaining on the nanofiber (conversion of pNPP, absorbance at 405 nm): alkaline phosphatase is coated only on PCL/fp-151 nanofiber to exhibit the activity

Source: patent publication US20130052712
